Measured values taken from article PMC314469, “Protein Interaction Networks by Proteome Peptide Scanning” (PLoS Biology, 2004).

T1: Boi1 SH3 (BOI1_YEAST), P38041
T1 chain: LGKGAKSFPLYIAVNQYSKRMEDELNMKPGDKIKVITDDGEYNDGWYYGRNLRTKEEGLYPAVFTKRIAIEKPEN

T2: Yfr024 SH3 (LSB3_YEAST), P43603
T2 chain: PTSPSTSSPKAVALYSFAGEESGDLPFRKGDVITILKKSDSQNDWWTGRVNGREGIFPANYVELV

T3: Boi2 SH3 (BOI2_YEAST), P39969
T3 chain: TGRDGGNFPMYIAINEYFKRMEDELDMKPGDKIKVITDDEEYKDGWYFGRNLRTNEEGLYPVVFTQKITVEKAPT

T4: Yhr016c SH3 (YSC84_YEAST), P32793
T4 chain: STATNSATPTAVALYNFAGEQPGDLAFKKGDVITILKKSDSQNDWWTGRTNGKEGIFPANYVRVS

T5: Rvs167 SH3 (RV167_YEAST), P39743
T5 chain: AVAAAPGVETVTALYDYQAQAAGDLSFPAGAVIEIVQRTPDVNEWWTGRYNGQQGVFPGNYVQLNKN

B1: YJL095W 1078-1091 (peptide)
chain: RTEPSTPSRPVPPD
B2: YOL164W 148-161 (peptide)
chain: RHRPQKPVRTVIYT
B3: YLR144C 22-35 (peptide)
chain: RGPPPLPPRANVQP
B4: YDR359C 776-789 (peptide)
chain: RPNPTQPRKPLDSK
B5: YER163C 47-60 (peptide)
chain: RGTPANPGRVATLI
B6: YGR198W 7-20 (peptide)
chain: RIPPTVPSKIIDVV
B7: YHR037W 29-42 (peptide)
chain: RNEPVKPFRNIDLK
B8: YMR004W 190-203 (peptide)
chain: RMIPELPPKRIGSQ
B9: YDR310C 204-217 (peptide)
chain: RRGPGRPRKDASTS
B10: YOR181W 311-324 (peptide)
chain: RPLPQLPNRNNRPV
B11: YGR146C 14-27 (peptide)
chain: RLIPTSPQKTNINT
B12: YNL139C 1279-1292 (peptide)
chain: RNEPVIPTKPSSSQ
B13: YFR013W 82-95 (peptide)
chain: RKRPAPPKKKAPST
B14: YER118C 8-21 (peptide)
chain: RPTPRKPSRMATDH
B15: YIL047C 210-223 (peptide)
chain: RLLPSWPKRGFSLL
B16: YOR322C 268-281 (peptide)
chain: RSIPRGPDKNSLRV
B17: YDR330W 407-420 (peptide)
chain: RVHPEPPNKPGITT
B18: YER032W 258-271 (peptide)
chain: RPPPLTPEKNLYLT
B19: YNL064C 356-369 (peptide)
chain: RIVPAIPKKATVDE
B20: YDR151C 80-93 (peptide)
chain: RPSPWLPSKPNSYH
B21: YDR223W 12-25 (peptide)
chain: RRKPHSPNKKKPKE
B22: YLR183C 354-367 (peptide)
chain: RVLPSKPKKSVKEN

Molecular target: T1, Boi1 SH3 (BOI1_YEAST), P38041
Assay: SPOT array

Binder | normalised SPOT signal, Boehringer light units (BLU); mean over the file's lines of this peptide
B1 | 54.7
B2 | 101
B3 | 3000
B4 | 210
B5 | 147
B6 | 43.1
B7 | 146
B8 | 366
B9 | 323
B10 | 6170
B11 | 52.5
B12 | 61.2
B13 | 192
B14 | 80.2
B15 | 69.4
B16 | 230
B17 | 122
B18 | 64.5
B19 | 92.7
B20 | 102
B21 | 148
B22 | 156

Molecular target: T2, Yfr024 SH3 (LSB3_YEAST), P43603
Assay: SPOT array

Binder | normalised SPOT signal, Boehringer light units (BLU); mean over the file's lines of this peptide
B1 | 7000
B2 | 3300
B3 | 25900
B4 | 271
B5 | 146
B6 | 618
B7 | 6040
B8 | 34800
B9 | 889
B10 | 19600
B11 | 547
B12 | 511
B13 | 840
B14 | 16500
B15 | 10700
B16 | 384
B17 | 271
B18 | 381
B19 | 13100
B20 | 6260
B21 | 693
B22 | 2620

Molecular target: T3, Boi2 SH3 (BOI2_YEAST), P39969
Assay: SPOT array

Binder | normalised SPOT signal, Boehringer light units (BLU); mean over the file's lines of this peptide
B1 | 8.2
B2 | 62.7
B3 | 14.3
B4 | 61.7
B5 | 0
B6 | 22.2
B7 | 47.3
B8 | 201
B9 | 53.5
B10 | 33.8
B11 | 30.1
B12 | 17
B13 | 39.9
B14 | 74.7
B15 | 251
B16 | 76.1
B17 | 76.2
B18 | 75.9
B19 | 27.5
B20 | 37.2
B21 | 198
B22 | 17.8

Molecular target: T4, Yhr016c SH3 (YSC84_YEAST), P32793
Assay: SPOT array

Binder | normalised SPOT signal, Boehringer light units (BLU); mean over the file's lines of this peptide
B1 | 435
B2 | 90.2
B3 | 33400
B4 | 104
B5 | 199
B6 | 158
B7 | 838
B8 | 19200
B9 | 57.2
B10 | 9140
B11 | 197
B12 | 115
B13 | 45.5
B14 | 2650
B15 | 1130
B16 | 144
B17 | 250
B18 | 0
B19 | 3320
B20 | 578
B21 | 113
B22 | 196

Molecular target: T5, Rvs167 SH3 (RV167_YEAST), P39743
Assay: SPOT array

Binder | normalised SPOT signal, Boehringer light units (BLU); mean over the file's lines of this peptide
B1 | 15.7
B2 | 48.3
B3 | 18300
B4 | 162
B5 | 48.8
B6 | 44.9
B7 | 39
B8 | 4880
B9 | 212
B10 | 25200
B11 | 73.9
B12 | 4.9
B13 | 59.3
B14 | 2100
B15 | 719
B16 | 296
B17 | 55.3
B18 | 50.7
B19 | 10900
B20 | 140
B21 | 38.5
B22 | 42.3
